# Experiments:
# [1] = tested on: S. aureus 1800 (CCUG 1800); assay: Microbicidal microplate-droplet assay, S. aureus; type: cell-based; design: key to S. aureus killing, growth grade in droplet assay: +++ = the number of colony forming units contained within 5 ul of a droplet formed a smooth layer of bacteria.; (+++): (parenthesis = a tendency towards a ruffled area compared with the control).; 0 = no bacteria in triplicate samples of 5 ul (>99.95 killed of the inoculum)
# Protocol: (§1) The bacterial strains S. aureus 1800 (CCUG 1800), E. coli 06, and the yeast C. albicans (ATCC 64549) have been used in the microplate assay. All microorganisms were cultured in brain heart infusion medium (BHI) on a shaker over night at 37° C. A volume of the culture was transferred to a new tube with BHI and incubated for two more h on the shaker. The bacteria were harvested in the log phase, washed once and thereafter suspended in the broth used for the microplate assay. The suspension was adjusted spectrophotometrically and diluted to a concentration of approximately 4×10^6 cells per ml at 650 nm. Washed cells were suspended in 0.2% BP (pH 7.0) or BHI medium diluted 1/10 (0.34%, pH 6.7-6.9) (Difco, USA). The concentration of bacterial or fungal cells was spectrophotometrically adjusted. LF or peptide, serially diluted in BHIdil or BP by twofold steps (unless otherwise stated), were added in triplicate to the wells of a microtiterplate (200 ul per well). The bacterial or yeast cell solutions were added in 10 ul volumes to give a final concentration of approximately 2×10^5 cells per ml. The concentration of the stock solution was always checked by viable counts. The microplate was incubated at 37° C. in a humid chamber for 2 h unless otherwise stated. Five ul were taken from each well and added as a drop onto a blood agar plate and incubated over night at 37° C. In some experiments more thorough viable counts were performed and the killing was expressed as remaining colony forming units in relation to the inoculum. The lower limit for detection of microorganisms was 200 CFU/ml. The antimicrobial activity of human LF was analysed by the microbicidal assay described above. Different microbes such as C. albicans, E. coli and S. aureus were analysed with respect to their survival in lactate (not containing the inert gel base, which makes the gel unsuitable for the microbicidal assay) containing LF.
# C. albicans (ATCC 64549) = assay: Microbicidal microplate assay (viable counts), C. albicans; type: cell-based
# Protocol: as §1, with “LF. […] LF was incubated together with various concentrations of lactate diluted in 0.2% bactopeptone and C. albicans for 2 h. Thereafter each solution was analysed for viable counts.” for “LF.”
# [2] = without lactate, 0.25 and 0.125 mg/ml, 2 h of incubation
molecule,measurement,setting,value
"LF: LF from human milk purchased from Sigma; single chain iron-binding glycoprotein (protein, UniProt P02788 20-710, looked up) Lactotransferrin: GRRRSVQWCAVSQPEATKCFQWQRNMRKVRGPPVSCIKRDSPIQCIQAIAENRADAVTLDGGFIYEAGLAPYKLRPVAAEVYGTERQPRTHYYAVAVVKKGGSFQLNELQGLKSCHTGLRRTAGWNVPIGTLRPFLNWTGPPEPIEAAVARFFSASCVPGADKGQFPNLCRLCAGTGENKCAFSSQEPYFSYSGAFKCLRDGAGDVAFIRESTVFEDLSDEAERDEYELLCPDNTRKPVDKFKDCHLARVPSHAVVARSVNGKEDAIWNLLRQAQEKFGKDKSPKFQLFGSPSGQKDLLFKDSAIGFSRVPPRIDSGLYLGSGYFTAIQNLRKSEEEVAARRARVVWCAVGEQELRKCNQWSGLSEGSVTCSSASTTEDCIALVLKGEADAMSLDGGYVYTAGKCGLVPVLAENYKSQQSSDPDPNCVDRPVEGYLAVAVVRRSDTSLTWNSVKGKKSCHTAVDRTAGWNIPMGLLFNQTGSCKFDEYFSQSCAPGSDPRSNLCALCIGDEQGENKCVPNSNERYYGYTGAFRCLAENAGDVAFVKDVTVLQNTDGNNNEAWAKDLKLADFALLCLDGKRKPVTEARSCHLAMAPNHAVVSRMDKVERLKQVLLHQQAKFGRNGSDCPDKFCLFQSETKNLLFNDNTECLARLHGKTTYEKYLGPQYVAGITNLKKCSTSPLLEACEFLRK","S. aureus killing, percentage of bacteria remaining in relation to the inoculum","[1]; HLF 500 ug/ml, lactate 0.2%, 2 h incubation",0 (0 = no bacteria in triplicate samples of 5 ul (>99.95 killed of the inoculum).)
same,"S. aureus killing, percentage of bacteria remaining in relation to the inoculum","[1]; HLF 500 ug/ml, lactate 0.2%, 5 h incubation",0 (0 = no bacteria in triplicate samples of 5 ul (>99.95 killed of the inoculum).)
same,"S. aureus killing, percentage of bacteria remaining in relation to the inoculum","[1]; HLF 500 ug/ml, lactate 1%, 2 h incubation",0 (0 = no bacteria in triplicate samples of 5 ul (>99.95 killed of the inoculum).)
same,"S. aureus killing, percentage of bacteria remaining in relation to the inoculum","[1]; HLF 500 ug/ml, lactate 1%, 5 h incubation",0 (0 = no bacteria in triplicate samples of 5 ul (>99.95 killed of the inoculum).)
same,"S. aureus killing, percentage of bacteria remaining in relation to the inoculum","[1]; HLF 500 ug/ml, lactate 5%, 2 h incubation",0 (0 = no bacteria in triplicate samples of 5 ul (>99.95 killed of the inoculum).)
same,"S. aureus killing, percentage of bacteria remaining in relation to the inoculum","[1]; HLF 500 ug/ml, lactate 5%, 5 h incubation",0 (0 = no bacteria in triplicate samples of 5 ul (>99.95 killed of the inoculum).)
same,"S. aureus killing, growth grade in droplet assay","[1]; HLF 500 ug/ml, no lactal, 2 h incubation",(+++)
same,"S. aureus killing, percentage of bacteria remaining in relation to the inoculum","[1]; HLF 500 ug/ml, no lactal, 5 h incubation",0.3%
same,"microbicidal activity against S. aureus, LF compared with rHLF",[1]; [2],somewhat more active
same,inoculate killed,"C. albicans (ATCC 64549); LF 2 mg/ml in lactate 1%, 2 h",92%
same,inoculate killed,"C. albicans (ATCC 64549); LF 5 mg/ml in lactate 1%, 2 h",98.2%
same,reduction of yeast cells,"C. albicans (ATCC 64549); LF in lactate concentrations 0.2%, 0.04% and 0%, 0.2% bactopeptone, 2 h",99.9%
same,effect of LF on antimicrobial effect of lactate against C. albicans,"C. albicans (ATCC 64549); lactate diluted fivefold or more (≦1%), all LF concentrations except 0.5 mg at 1% lactate",enhanced the antimicrobial effect of lactate
same,"microbicidal activity against C. albicans, LF compared with rHLF",C. albicans (ATCC 64549); [2],somewhat more active
